# Measured values reported in the DeepSol protein solubility set.
# Assay: soluble on expression in E. coli; label from the status in PepcDB or PDB records
row,Sequence,soluble on expression in E. coli
1,MTTAKPNTVEQFEHVIDICREVFQKKLHDYGASWRVMRPSSLTDQLYIKANRIRNIQMKGLSKVDEGVESEFIGVVNYGVIALIQLELGVADTPKMETEEALRLYDLKIREAMSLMLDKNHDYGEAWRQMRVSSFADLILTKVFRTKEIEDLGGDTYISEGVDANYMDMINYAIFALIQLNG,not soluble
2,MRRLAWLLPLLLLAGAVGALRYQWLDLPARWNPWLPLDVREPPNLLTRYKLWRLADDRSLCDAALATSQLRYQRVADDPPSATCPLSNSLRVRGAALELSSSFLASCPLAVSYALFERHVLQPAALDIYGQPLARVEHVGSFACRNVYNREDGRRSQHASANALDISGFRLADGRRIRLATDWAGESADGRFLRRVRDGACASFNAVLGPDYNAAHRDHFHLDMGLWKVCRLEHHHHHH,not soluble
3,MKYGYFDNDNREYVITRPDVPAPWTNYLGTEKFCTVISHNAGGYSFYNSPEYNRVTKFRPNATFDRPGHYVYLRDDDSGDYWSISWQPVAKSLDEAQYQIRHGLSYSKFQCDYNGIHARKTLFVPKGEDAEIWDVVIKNTSDQVRTISAFSFVEFSFSHIQSDNQNHQMSLYSAGTAYRPGLIEYDLYYNTDDFEGFYYLASTFDPDSYDGQRDRFLGLYRDEANPLAVEQGRCSNSAQTCYNHCGSLHKQFTLQPGEEIRFAYILGIGKGNGERLREHYQDVANIDAAFAAIKAHWDERCAKFQVKSPNQGLDTMINAWTLYQAETCVVWSRFASFIEVGGRTGLGYRDTAQDAISVPHANPEMTRKRIVDLLRGQVKAGYGLHLFDPDWFDPEKEDVAPSKSPTVVPTPSDEDKIHGIKDTCSDDHLWLIPTICKYVMETGETSFFDQMIPYADGGEASVYEHMKAALDFSAEYVGQTGICKGLRADWNDCLNLGGGESSMVSFLHFWALQEFIDLAKFLGKDQDVNTYTEMAANVREACETHLWDDEGGWYIRGLTKNGDKIGTAQQQEGRVHLESNTLAVLSGLASQERGEQAMDAVDEHLFSPYGLHLNAPSFSTPNDDIGFVTRVYQGVKENGAIFSHPNPWAWVAETKLGRGDRAMKFYDALNPYNQNDIIEKRIAEPYSYVQFIMGRDHQDHGRANHPWLTGTSGWAYFAVTNYILGVQSGFTGLSVDPCIPSDWPGFEVTRQWRGATYHIQVENPDHVSKGVKSITLNGAPIQGRIPPQAQGSDNQVVVVLGHHHHHH,soluble
4,MYSDHTQTEAFRGELHGVYGLLFTDGGAPSSAQTSTDFIDASLGVNGYLAADGRGTLAGRVSGVLAGQPAVVGLRNAQAQYWATATGSGDYQINGVRPGRYRMTLYQHELEVAQRDVEVFAGATAQAALQAVSLPGAVKWLEHHHHHH,not soluble
5,SAAAALRDQLTALLSSMFSQGLVDEQFQQLQMLQDEGGTPGFVSEVVTLFCDDADRIINEIATLLEQPVVNFDKVDAYVHQLKGSSASVGAQKVKFTCMQFRQFCQDKSRDGCLMALAVVRNDFYDLRNKFQTMLQLEQQIQAYDPKQQ,soluble
6,MSLRTEEEMFQLIMDVAKQEEHIRAVGMVGSRTNVKAPKDSFQDFDIVYIVEPCAEFFETATWIAKFGQPLIMQRPKEMTLFPTEPKTRETFLMLFEDGQRIDLTLCPLAEKDNWHEGDSLAIILLDKDENLPPLPVASDKNYTVTVPDQQQFNDCCNEFWWVSTYVVKGLCRNELFYAVTHLYEYCQQELLRLLSWQAAWQEPEPISVGKQFKYLKNYVTPDTMDQLASLLDFSSKEACWNSLIKTQAFFDVVAQDFAKMAQFTYHLQEAKKVTEYTNSLRLKDLQGKEGHHHHHH,soluble
7,SASVLKETAGLYETLKAEWNKKNPNLNKCGELLSKLKISLLELNFLPTTGTKLTKQQLILARDVLEIGALWSILKKDIPSFERYMAQLKCYYFDYKDELPESAYRHQLLGLNLLFLLSQNRVSEFHTELERLSAKDIQTNVYIRHPVSLEQYLMEGSYNKVFLAKGNIPAESYTFFIDTLLDTIRDEIAGCIEKAYEQIQFNEATRVLFFSSPKKMTDYAKKRNWTQSPDGYYSFSTQHQKTEEVTIPSTELAKQVIEYARQLEMIV,soluble
8,GPGSMSYYDKSSSVGYDERDKELNEELEAMLARTPPHIQRHLQQRIHDGILQRMKEETTRKCWEFVKKYEGCVNSVQPYNIRECLPHRDALNDCAHEINCEDNYQKYRLLYLHGELLKLHEHRTGQKMEALKSRVPDSIRTWKSDYAPKYADMMSEVGAKPFTGEGENLDDE,soluble
9,MGSDKIHHHHHHMTYPKYTQQALSRYNLPRLKRIATELGVTPTGDKRAADTWVNAIIIHQSTKLQKVDNQALAQAELDSYIADQAQAIAPEPLTIVEISFDHHEYYADDKLVASISHDDSHLTQRWVVMINDKEIFRANTLMHCDRFICNHYKDGSLPVQEKEATPSTIENQIMAHIFNECQNYGFEILDDGIYNNGVKLGQVGCTDGNWWVKRRYSVQQQYSNSVLDAVRSLSMLDVSNGGKSIFDEYILDQPLEQLTGDRLQRLLERAELVTA,not soluble
10,MPKGSGKVIAQNKKAFHDYFIEETYEAGLVLQGTEIKSIRAGRVNLKDAFARVHNGEVWVHNMHISTYEQGNRFNHDPLRTRKLLLHKKEIEKLAGASKETGYALVPVRIYLKNGFAKMALGLAKGKKQYDKRHDLKEKEAKREIARAFRDRQKM,not soluble
11,MAWASPDGHCTVEHSADSVHLWRFEHSVYDGFDTHWTATFTPEVPERLVAQFFTHLATTTPVERVFRDVPYLVQSLDAALITPVNRAAVNPHVHHAGAQLGRAVHRRLEHHHHHH,not soluble
12,MGSDKIHHHHHHLTIRVLAHLAGAHLDHAIALGLRSGLGDDWLRIGGLKLFADGSLGSESAHMLLPYEGRDHTGIAVIPPAEMQEIVTRANAHGISVVVHAIGDAANRSVLDAIAAARATAASLALPNRIEHCQILDPHDIPRFAELNVIASMQPIHCTADMVMAERLWGKRCATSYAWRSLRAAGATLAFGSDAPVETMDPWAGIHAAVTRQTTDGTPDGGWYPEQRLTLTEALEAYCIGPTIAGADAERRGRLIPGMFADLAVLNGDPFQMPVTHLHTLHAELTMVGGKIVFNRTSR,not soluble
13,MSLELVSFVKSHIDQAVYFSTITSNPIEFNLPESLSLDTTDIENDIKTSCDEIFYSTGSYIPPMLNTLEQHLNLRIEYFNNLIEFTKINFNYKISPTVKLYLIEKISILKCCLALFKYISDKAILSNIWRDLVLNSFNDSSLEEFVLGKLDEFPRLFTIFLNDLSAKIVGFNDVEEKVKIVDLLITCVYDAVLENCEKSIRYDALQLDPLELDNKPMWFTNLTNIKAMNNIFFSFIFPDNDLSVENKQRLLTVVKLLYYVINQNMIWHKSMKQIETEEYKEVEALYNDNHANWIHVLCNIGVHEEALQICEFYHDLGGLVEILEKLDFEISRELYDQYFKMFGYEFATILFEYYINAKDLKALFFKFPNHHDLLNKFLLSSPPKYYKYAWIQEIIDNDYRKASDILTTLSVGEAGDGCEISERQLHLNIAKLSGLVDENFDANQMIEIQRDIDTIDHQTRIKKLLEEDPTGISMNQAFANNEFGEKFQETKYCIQNDKSINIKYIIDMLSMMDSVENLYEALKLTCIYRHSLGYEVSKYFQQSIWRRCIIEESKDGVIQLEGENSKIYQLLVKYFEGKLYEYDCKLPFVSFLMDRIGISMNFLSIIYGNDNNVLVSISDSIEREYHDLIRIGDTLESQLSTIIGSANEGHHHHHH,not soluble
14,MSLIIDCHGHVSAPVELWAYKASLLAHRGSHGRGGVKVTDEQIIAAAHHKETWPDGHIELLHNHGTDMQLISPRTFQMMNSAKPARVVHWFCEEVNTLIHRQCTLIPEMFIPVAGLPQVAGEPIENVFAEMDRCVSMGFKGFLLNPDPYENGAEEAPPLGDRYWYPLYEKLCELDLPAHIHATGSQSERSPYSLHFINEETIATYNLCTSSVFDDFPQLKVVVSHGGGAIPYQLGRFESQSRRSKHLFSERMAKLYFDTVLYTEGALRLLIETVGPERCLFGSECPGVGSTIDPATGKQMDHIAPFIQKFDFLSDADKKLIFEDNARKVFNLEVEGHHHHHH,soluble
15,IKLVIVTGMSGAGKTVAIQSFEDLGYFTIDNMPPTLVPKFLELAAQSGDTSKIAMVVDMRSRLFFREINSILDSLEINDNINFKILFLDATDTELVSRYKETRRSHPLAADGRVLDGISLERELLAPLKSMSQNVVDTSELTPRQLRKVISKEFSNQDSQSSFRIEVMSFGFKYGIPLDADLVFDVRFLPNPYYKPELRDKTGLDTEVYDYVMSFDESDDFYDHLLALIKPILPGYQNEGKSVLTVAIGCTGGQHRSTAFAHRLSEDLKADWTVNESHRDKNKR,not soluble
16,MSLKIFPSSSIKKLDAYTIEHEPIASIDLMERAAQALTKAITERWDITTPVTVFAGPGNNGGDALAVARMLAEKEYKVEAYLFNPKGELSADCQTNKELVEMMDNVKFSEVSTQFVPPTLTMDHLVVDGLFGSGLNKPLSGGFAAVVKYINASPATVVAIDIPSGLMGEENTFNVKANIIRAQLTLSLQLPKLAFLFAENSEFVGEWKLLDINLSREAIEETESNYALLEAEEIHALIKPRNTFSHKGNFGHALLIAGSYGMAGASILAARACMRSGVGLLTVHAPIRNNDILQISVPEAIIESDASDTYFACPTDTDDYQAVGIGPGIGRSEETEAALLEQLSGCQTPLVLDADALNILANHRHALTTLPKGSILTPHPKELERMVGKCQNSYERLMKACELARTAKVHIILKGAYSAIITPSGKCYFNSTGNPGMATAGSGDVLTGVVLALLAQGYPAEEAAKIGTYVHGLAGDFARKKQGVISMTAGDIISNLPLAWRLVSEGHHHHHH,soluble
17,ETGDIVETATGAGSFTTLLTAAEAAGLVDTLKGDGPFTVFAPTDAAFAALPEGTVEDLLKPENKEKLTEILTYHVVPGEVMSSDLTEGMTAETVEGGALTVTLEGGPKVNGVSISQPDVDASNGVIHVIDGVLMPGA,soluble
18,MVKFLRDLVKIPGESAEEGNKIARAKAEMEKLGFDKIDIDPQGNLLGYMGSGEKLIAFDGHMDTVGIGEMSNWKFDPYDGYETETEIGGRGTSDQEGGIVSAIYGAKIMKDLGLLSEKYTALVTVTVQEEDCDGLCWQYIIKEDGIRPEFVVSTEPTDGGIYRGQRGRMEIKVDVKGVSCHGSAPERGDNAIYKMADILQDVRALNNNGDTESTAIRGLVRMLDPKYNPEWQEARFLGRGTVTVSQIFHSSPSRCAVADGCTVSLDRRMTAGETWESCLEEIRNLPAVKKYGDDVTVSMYNYDRPSYTDLTYEIECYFPTWVIPENHDVTKALMETHKNLYGETRKGSVETVEMREERPLLDKWTFSTNGVSIMGRNGIPCIGFGPGAEAQAHAPNEKTWKDDLVRCAAVYAALPTVYCG,not soluble
19,MSLNPSGKYQVKILGIEDYQALTACQSACPLGTDTKRYVRAITEGDYEKAFLIARQTNPLVSVCSRVCTAPCEKSCRKGEQGHPVDIRALKRFACDKHGVTSPRAVAGRLEEISRQNGGVGDRTGNHILTMAAVQKAGAAATSRKPAPRVAIIGSGPTGLSAAHDLALLGYGVTIFEAAPYAGGMLRTGIPAFRLPKDVLQQEIDAILNLGVELKLNSPIGEDLTLADLKAQGYESVFITIGLQDPLRILNIEGTDLAGIYSGVEYVRDHEKIRLGKRCLVIGGGGVAIDCAQHAVRQGAEQVMIACLESWETMPASLTEREDAQEEGIVFHPALGPRRFMGHNGHVARAEFLQVSSVFDSEGRFAPTFVPDSTTTLEVDSVILAVGQASTAPSLAGLAGLDLTPNGLIKAAEDMSTNLPGVFAGGDVRWRFTRNATDAIADGQKAARAIHGYLSGHTPQVIRKGFMRPVSPDFENTRCDTIAPVPIPKRDAGERVRTKEEITIGFGEAEAREQAARCRRCNIQTVFERSRCLRCGTCVDTCVNGALRIVRLADIQGDEDVAKLTDALKKSAQTRSKAMTAIIKDESRCASCGMCARRCPGGAITMAEFYCQEEWEEGHHHHHH,soluble
